Laboratory results reported in US20190024066A1.
Several values for one entry are separate records, joined by “and”; a condition that tells them apart may be missing. Equal values may be shown once.

Columns and labels:
[1] = molecular target: His-tagged FcγRIIb (R&D Systems) (human) (UniProt P31994); assay: competition ELISA, His-FcγRIIb, competitor coated HZ 15C1; 4.12 µg/ml
CD20 on Raji cells [2] = molecular target: CD20 on Raji cells (UniProt P11836); assay: flow cytometry, Raji cells; 0.00061 µg/mL
[3] = molecular target: His-tagged FcγRIIb (R&D Systems) (human) (UniProt P31994); assay: competition ELISA, His-FcγRIIb, competitor coated HZ 15C1; 333.33 µg/ml
CD20 on Raji cells [4] = molecular target: CD20 on Raji cells (UniProt P11836); assay: flow cytometry, Raji cells; 0.039063 µg/mL
[5] = molecular target: His-tagged FcγRIIa (FcγRIIaR, R&D Systems) (human) (UniProt P12318); assay: competition ELISA, His-FcγRIIaR, competitor coated HZ 15C1; concentration cell 1.267617
[6] = molecular target: His-tagged FcγRI (R&D Systems) (human) (UniProt P12314); assay: competition ELISA, His-FcγRI, competitor coated anti-idiotype antibody; 0.016 µg/ml
[7] = molecular target: mouse neonatal Fc receptor (mFcRn) (mouse) (UniProt Q61559); assay: SPR
[8] = molecular target: His-tagged FcγRI (R&D Systems) (human) (UniProt P12314); assay: competition ELISA, His-FcγRI, competitor coated anti-idiotype antibody; 0.08 µg/ml
[9] = molecular target: His-tagged FcγRIIb (R&D Systems) (human) (UniProt P31994); assay: competition ELISA, His-FcγRIIb, competitor coated HZ 15C1; 37.04 µg/ml
[10] = molecular target: His-tagged FcγRIIb (R&D Systems) (human) (UniProt P31994); assay: competition ELISA, His-FcγRIIb, competitor coated HZ 15C1; 3000 µg/ml
[11] = molecular target: His-tagged FcγRIIb (R&D Systems) (human) (UniProt P31994); assay: competition ELISA, His-FcγRIIb, competitor coated HZ 15C1; 1000 µg/ml
[12] = molecular target: His-tagged FcγRI (R&D Systems) (human) (UniProt P12314); assay: competition ELISA, His-FcγRI, competitor coated anti-idiotype antibody; 10 µg/ml
CD20 on Raji cells [13] = molecular target: CD20 on Raji cells (UniProt P11836); assay: flow cytometry, Raji cells; 10 µg/mL
CD20 on Raji cells [14] = molecular target: CD20 on Raji cells (UniProt P11836); assay: flow cytometry, Raji cells; […]
[15] = molecular target: His-tagged FcγRIIa (FcγRIIaR, R&D Systems) (human) (UniProt P12318); assay: competition ELISA, His-FcγRIIaR, competitor coated HZ 15C1; concentration cell -0.64016
[16] = molecular target: FcγRIIIaV with a hexahistidine tag (R&D Systems) (human) (UniProt P08637); assay: BLI, His-FcγRIIIaV on anti-penta-His sensor, steady-state model
CD20 on Raji cells [17] = molecular target: CD20 on Raji cells (UniProt P11836); assay: flow cytometry, Raji cells; 0.625 µg/mL
[18] = molecular target: His-tagged FcγRI (R&D Systems) (human) (UniProt P12314); assay: competition ELISA, His-FcγRI, competitor coated anti-idiotype antibody; 0.4 µg/ml
[19] = molecular target: His-tagged FcγRIIa (FcγRIIaR, R&D Systems) (human) (UniProt P12318); assay: competition ELISA, His-FcγRIIaR, competitor coated HZ 15C1; concentration cell 2.69897
[20] = molecular target: His-tagged FcγRIIa (FcγRIIaR, R&D Systems) (human) (UniProt P12318); assay: competition ELISA, His-FcγRIIaR, competitor coated HZ 15C1; concentration cell 0.790496
CD20 on Raji cells [21] = molecular target: CD20 on Raji cells (UniProt P11836); assay: flow cytometry, Raji cells; 0.15625 µg/mL
CD20 on Raji cells [22] = molecular target: CD20 on Raji cells (UniProt P11836); assay: flow cytometry, Raji cells; 0.009766 µg/mL
[23] = molecular target: human neonatal Fc receptor (hFcRn), biotinylated (human) (UniProt P55899); assay: SPR, biotinylated hFcRn on streptavidin chip, IgG injected, pH 6.0
[24] = molecular target: His-tagged FcγRIIb (R&D Systems) (human) (UniProt P31994); assay: competition ELISA, His-FcγRIIb, competitor coated HZ 15C1; 12.35 µg/ml
CD20 on Raji cells [25] = molecular target: CD20 on Raji cells (UniProt P11836); assay: flow cytometry, Raji cells; 2.5 µg/mL
[26] = molecular target: His-tagged FcγRIIa (FcγRIIaR, R&D Systems) (human) (UniProt P12318); assay: competition ELISA, His-FcγRIIaR, competitor coated HZ 15C1; concentration cell -0.16368
[27] = molecular target: His-tagged FcγRIIa (FcγRIIaR, R&D Systems) (human) (UniProt P12318); assay: competition ELISA, His-FcγRIIaR, competitor coated HZ 15C1; concentration cell 2.22185
[28] = molecular target: His-tagged FcγRI (R&D Systems) (human) (UniProt P12314); assay: competition ELISA, His-FcγRI, competitor coated anti-idiotype antibody; 0.0006 µg/ml
[29] = molecular target: His-tagged FcγRI (R&D Systems) (human) (UniProt P12314); assay: competition ELISA, His-FcγRI, competitor coated anti-idiotype antibody; 0.0032 µg/ml
[30] = molecular target: His-tagged FcγRIIb (R&D Systems) (human) (UniProt P31994); assay: competition ELISA, His-FcγRIIb, competitor coated HZ 15C1; 111.11 µg/ml
[31] = molecular target: His-tagged FcγRIIa (FcγRIIaR, R&D Systems) (human) (UniProt P12318); assay: competition ELISA, His-FcγRIIaR, competitor coated HZ 15C1; concentration cell 1.744731
[32] = molecular target: His-tagged FcγRIIa (FcγRIIaR, R&D Systems) (human) (UniProt P12318); assay: competition ELISA, His-FcγRIIaR, competitor coated HZ 15C1; concentration cell 0.313445
[33] = molecular target: His-tagged FcγRI (R&D Systems) (human) (UniProt P12314); assay: competition ELISA, His-FcγRI, competitor coated anti-idiotype antibody; 50 µg/ml
[34] = molecular target: His-tagged FcγRI (R&D Systems) (human) (UniProt P12314); assay: competition ELISA, His-FcγRI, competitor coated anti-idiotype antibody; 2 µg/ml

Chain of UniProt P31994 (P31994 46-217 limits assumed): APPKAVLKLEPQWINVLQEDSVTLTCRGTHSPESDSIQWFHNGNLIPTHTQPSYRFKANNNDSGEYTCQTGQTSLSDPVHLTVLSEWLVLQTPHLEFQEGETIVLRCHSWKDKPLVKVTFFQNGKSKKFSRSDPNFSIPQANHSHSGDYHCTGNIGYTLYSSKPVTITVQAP
Chain of UniProt P12314 (P12314 16-288 limits assumed): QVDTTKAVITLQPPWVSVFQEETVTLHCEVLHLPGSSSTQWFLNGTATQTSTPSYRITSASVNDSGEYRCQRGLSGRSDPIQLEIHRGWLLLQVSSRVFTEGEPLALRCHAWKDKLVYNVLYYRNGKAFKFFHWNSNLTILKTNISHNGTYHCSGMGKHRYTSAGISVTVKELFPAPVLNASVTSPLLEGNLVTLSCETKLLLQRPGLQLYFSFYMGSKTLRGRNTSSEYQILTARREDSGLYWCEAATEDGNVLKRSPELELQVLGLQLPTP
Chain of UniProt P11836 (P11836 whole entry): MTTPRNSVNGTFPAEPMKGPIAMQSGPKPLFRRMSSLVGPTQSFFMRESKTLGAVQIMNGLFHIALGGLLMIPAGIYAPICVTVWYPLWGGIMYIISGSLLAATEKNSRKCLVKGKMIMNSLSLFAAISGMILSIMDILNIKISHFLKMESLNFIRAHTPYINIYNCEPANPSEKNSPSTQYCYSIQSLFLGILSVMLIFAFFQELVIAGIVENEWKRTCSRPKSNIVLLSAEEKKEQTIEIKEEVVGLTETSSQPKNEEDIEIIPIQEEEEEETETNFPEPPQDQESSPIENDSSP
Chain of UniProt P12318 (P12318 36-218 H167R limits assumed): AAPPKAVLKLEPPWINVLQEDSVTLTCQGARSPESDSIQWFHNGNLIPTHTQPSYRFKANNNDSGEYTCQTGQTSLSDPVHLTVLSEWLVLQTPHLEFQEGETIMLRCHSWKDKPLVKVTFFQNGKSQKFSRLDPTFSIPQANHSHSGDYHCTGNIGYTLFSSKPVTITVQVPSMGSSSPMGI
Chain of UniProt P08637 (P08637 17-208 F176V limits assumed): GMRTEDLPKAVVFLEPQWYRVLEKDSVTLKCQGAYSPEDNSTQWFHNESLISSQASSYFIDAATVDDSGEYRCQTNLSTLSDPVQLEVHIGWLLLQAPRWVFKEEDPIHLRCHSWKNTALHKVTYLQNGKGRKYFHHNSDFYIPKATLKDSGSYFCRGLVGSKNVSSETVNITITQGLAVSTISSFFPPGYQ
Chain of UniProt P55899 (P55899 24-297 limits assumed): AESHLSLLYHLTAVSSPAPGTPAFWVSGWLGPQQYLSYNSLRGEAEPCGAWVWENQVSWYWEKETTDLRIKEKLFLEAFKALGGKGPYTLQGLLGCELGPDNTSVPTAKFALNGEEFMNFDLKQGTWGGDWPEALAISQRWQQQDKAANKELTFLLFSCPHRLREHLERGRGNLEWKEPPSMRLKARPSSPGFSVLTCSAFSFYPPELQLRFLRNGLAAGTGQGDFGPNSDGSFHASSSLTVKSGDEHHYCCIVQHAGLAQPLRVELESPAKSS
Chain of UniProt Q61559 (Q61559 22-297 limits assumed): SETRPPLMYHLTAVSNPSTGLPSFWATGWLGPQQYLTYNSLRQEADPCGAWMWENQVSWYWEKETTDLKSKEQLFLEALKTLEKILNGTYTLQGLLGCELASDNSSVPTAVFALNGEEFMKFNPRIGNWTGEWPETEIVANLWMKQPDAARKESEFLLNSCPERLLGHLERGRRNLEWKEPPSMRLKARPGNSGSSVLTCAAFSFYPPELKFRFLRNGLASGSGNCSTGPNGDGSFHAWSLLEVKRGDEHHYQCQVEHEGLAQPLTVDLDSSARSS

## 293S anti-CD20 (monoclonal anti-CD20 antibody obinutuzumab, GA101, produced in 293S cells)
[1]
  absorbance at 450 nm: 2.27 and 1.92
CD20 on Raji cells [2]
  flow cytometry signal (name not given): 14.1 and 12.3 and 11.3
[3]
  absorbance at 450 nm: 1.06 and 1.1
CD20 on Raji cells [4]
  flow cytometry signal (name not given): 241 and 234 and 210
[5]
  absorbance at 450 nm: 2.43 and 2.91 and 2.73
[6]
  absorbance at 450 nm: 3.05 and 3.04 and 3.16
[7]
  Kd: 0.258 nM
[8]
  absorbance at 450 nm: 2.24 and 2.2 and 2.33
[9]
  absorbance at 450 nm: 1.66 and 1.54
[10]
  absorbance at 450 nm: 0.284 and 0.274
[11]
  absorbance at 450 nm: 0.641 and 0.629
[12]
  absorbance at 450 nm: 0.143 and 0.141
CD20 on Raji cells [13]
  flow cytometry signal (name not given): 2640 and 2560 and 2580
CD20 on Raji cells [14]
  flow cytometry signal (name not given): 28.6 and 27.5 and 23.2
[15]
  absorbance at 450 nm: 2.6 and 2.88 and 2.98
[16]
  Kd: 500 nM
CD20 on Raji cells [17]
  flow cytometry signal (name not given): 1500 and 1520 and 1550
[18]
  absorbance at 450 nm: 1.14 and 1.1 (2×)
[19]
  absorbance at 450 nm: 0.684 and 0.732 and 0.671
[20]
  absorbance at 450 nm: 2.56 and 2.91 and 2.98
CD20 on Raji cells [21]
  flow cytometry signal (name not given): 673 (2×) and 644
CD20 on Raji cells [22]
  flow cytometry signal (name not given): 76.4 and 79.7 and 72.2
[23]
  Kd: 5.6 nM
[24]
  absorbance at 450 nm: 1.99 and 1.87
CD20 on Raji cells [25]
  flow cytometry signal (name not given): 2150 and 2180 and 1920
[26]
  absorbance at 450 nm: 2.69 and 3.02 and 3.1
[27]
  absorbance at 450 nm: 1.5 and 1.64 and 1.68
[28]
  absorbance at 450 nm: 3.43 and 3.6 (2×)
[29]
  absorbance at 450 nm: 3.39 and 3.4 and 3.44
[30]
  absorbance at 450 nm: 1.52 and 1.49
[31]
  absorbance at 450 nm: 2.11 and 2.46 and 2.36
[32]
  absorbance at 450 nm: 2.57 and 2.96 and 2.93
[33]
  absorbance at 450 nm: 0.085 and 0.091 and 0.084
[34]
  absorbance at 450 nm: 0.388 and 0.379 and 0.377
